# B1: FAM 37 bp duplex (dsDNA)
# DNA 1: CCTAGGCTACACCTACTCTTTGTAAGAATTAAGCTTC
# DNA 2: GAAGCTTAATTCTTACAAAGAGTAGGTGTAGCCTAGG
# B2: SMCHD1^△CC, truncated SMCHD1 without both coiled-coil domains, purified (natural protein, human, UniProt A6NHR9 1-2005, looked up)
# chain: MAAADGGGPGGASVGTEEDGGGVGHRTVYLFDRREKESELGDRPLQVGERSDYAGFRACVCQTLGISPEEKFVITTTSRKEITCDNFDETVKDGVTLYLLQSVNQLLLTATKERIDFLPHYDTLVKSGMYEYYASEGQNPLPFALAELIDNSLSATSRNIGVRRIQIKLLFDETQGKPAVAVIDNGRGMTSKQLNNWAVYRLSKFTRQGDFESDHSGYVRPVPVPRSLNSDISYFGVGGKQAVFFVGQSARMISKPADSQDVHELVLSKEDFEKKEKNKEAIYSGYIRNRKPSDSVHITNDDERFLHHLIIEEKEKDSFTAVVITGVQPEHIQYLKNYFHLWTRQLAHIYHYYIHGPKGNEIRTSKEVEPFNNIDIEISMFEKGKVPKIVNLREIQDDMQTLYVNTAADSFEFKAHVEGDGVVEGIIRYHPFLYDRETYPDDPCFPSKLKDEDDEDDCFILEKAARGKRPIFECFWNGRLIPYTSVEDFDWCTPPKKRGLAPIECYNRISGALFTNDKFQVSTNKLTFMDLELKLKDKNTLFTRILNGQEQRMKIDREFALWLKDCHEKYDKQIKFTLFKGVITRPDLPSKKQGPWATYAAIEWDGKIYKAGQLVKTIKTLPLFYGSIVRFFLYGDHDGEVYATGGEVQIAMEPQALYDEVRTVPIAKLDRTVAEKAVKKYVEDEMARLPDRLSVTWPEGDELLPNEVRPAGTPIGALRIEILNKKGEAMQKLPGTSHGGSKKLLVELKVILHSSSGNKEIISHISQHGGKWPYWFKKMENIQKLGNYTLKLQVVLNESNADTYAGRPLPSKAIKFSVKEGKPEKFSFGLLDLPFRVGVPFNIPLEFQDEFGHTSQLVTDIQPVLEASGLSLHYEEITKGPNCVIRGVTAKGPVNSCQGKNYNLKVTLPGLKEDSQILKIRLLPGHPRRLKVKPDSEILVIENGTAFPFQVEVLDESDNITAQPKLIVHCKFSGAPNLPVYVVDCSSSGTSILTGSAIQVQNIKKDQTLKARIEIPSCKDVAPVEKTIKLLPSSHVARLQIFSVEGQKAIQIKHQDEVNWIAGDIMHNLIFQMYDEGEREINITSALAEKIKVNWTPEINKEHLLQGLLPDVQVPTSVKDMRYCQVSFQDDHVSLESAFTVRPLPDEPKHLKCEMKGGKTVQMGQELQGEVVIIITDQYGNQIQAFSPSSLSSLSIAGVGLDSSNLKTTFQENTQSISVRGIKFIPGPPGNKDLCFTWREFSDFIRVQLISGPPAKLLLIDWPELKESIPVINGRDLQNPIIVQLCDQWDNPAPVQHVKISLTKASNLKLMPSNQQHKTDEKGRANLGVFSVFAPRGEHTLQVKAIYNKSIIEGPIIKLMILPDPEKPVRLNVKYDKDASFLAGGLFTDFMISVISEDDSIIKNINPARISMKMWKLSTSGNRPPANAETFSCNKIKDNDKEDGCFYFRDKVIPNKVGTYCIQFGFMMDKTNILNSEQVIVEVLPNQPVKLVPKIKPPTPAVSNVRSVASRTLVRDLHLSITDDYDNHTGIDLVGTIIATIKGSNEEDTDTPLFIGKVRTLEFPFVNGSAEIMSLVLAESSPGRDSTEYFIVFEPRLPLLSRTLEPYILPFMFYNDVQQVPHIEALLKRKLSEQEELKKKPRRSCTLPNYTKGSGDVLGKIAHLAQIEDDRAAMVISWHLASDMDCVVTLTTDAARRIYDETQGRQQVLPLDSIYKKTLPDWKRSLPHFRNGKLYFKPIGDPVFARDLLTFPDNVEHCETVFGMLLGDTIILDNLDAANHYRKEVVKITHCPTLLTRDGDRIRSNGKFGGLQNKAPPMDKLRGMVFGAPVPKQCEEKLGMTPIRKCNDSLRHSPKVETTDCPVPPKRMRREATRQNRIITKTDV
# Key:
# SMCHD1 ATPase domain = target: T1, SMCHD1 ATPase domain (UniProt A6NHR9 25-581); assay: EMSA
# T1 sequence: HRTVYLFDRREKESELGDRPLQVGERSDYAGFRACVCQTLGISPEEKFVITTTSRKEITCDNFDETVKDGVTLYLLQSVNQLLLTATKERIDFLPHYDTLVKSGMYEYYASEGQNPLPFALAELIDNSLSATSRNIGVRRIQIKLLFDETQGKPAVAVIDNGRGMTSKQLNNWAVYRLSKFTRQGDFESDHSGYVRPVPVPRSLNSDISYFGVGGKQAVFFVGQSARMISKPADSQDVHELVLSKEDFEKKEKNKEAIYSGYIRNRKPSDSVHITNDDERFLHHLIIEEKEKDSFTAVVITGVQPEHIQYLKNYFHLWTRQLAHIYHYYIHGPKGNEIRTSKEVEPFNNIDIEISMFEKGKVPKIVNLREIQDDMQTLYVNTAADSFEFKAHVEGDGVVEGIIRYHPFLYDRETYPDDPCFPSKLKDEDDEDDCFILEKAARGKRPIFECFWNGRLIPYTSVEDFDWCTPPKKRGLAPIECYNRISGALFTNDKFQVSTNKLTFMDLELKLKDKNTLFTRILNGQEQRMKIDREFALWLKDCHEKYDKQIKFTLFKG
# atomic force microscopy = target: the molecule itself; assay: atomic force microscopy
Binder,binding result (SMCHD1 ATPase domain),binding result (atomic force microscopy)
B1,binds,
B2,,binds

# Reference: publication doi:10.1101/2025.07.08.663435 (bioRxiv, 2025)
